Data on nine proteins can be found in publication PMC2914249, “Structure and Reactivity of Bacillus subtilis MenD Catalyzing the First Committed Step in Menaquinone Biosynthesis” (Journal of Molecular Biology, 2010).

Substrate in data set [1]: O=C(O)CCC(=O)C(=O)O
Kind of data set: purified protein. The format is biochemical, Bacillus subtilis. To be noted: 50 mM Tris-HCl pH 7.8, 20 mM NaCl, 5 mM MgSO4, 23 °C, co-substrate isochorismate.

Substrate in data set [2]: C=C(O[C@H]1C=CC=C(C(=O)O)[C@@H]1O)C(=O)O
Kind of data set: purified protein. The format is biochemical, Bacillus subtilis. To be noted: 50 mM Tris-HCl pH 7.8, 20 mM NaCl, 5 mM MgSO4, 23 °C, co-substrate α-ketoglutarate.

Where a chain is given by its changes, count along the chain named. Numbers in names are those of the source.

B1: BsMenD (MenD, SEPHCHC synthase, EC 2.2.1.9) (Bacillus subtilis subsp. subtilis str. 168; I489A) (protein)
chain: MTVNPITHYIGSFIDEFALSGITDAVVCPGSRSTPLAVLCAAHPDISVHVQIDERSAGFFALGLAKAKQRPVLLICTSGTAAANFYPAVVEAHYSRVPIIVLTADRPHELREVGAPQAINQHFLFGNFVKFFTDSALPEESPQMLRYIRTLASRAAGEAQKRPMGPVHVNVPLREPLMPDLSDEPFGRMRTGRHVSVKTGTQSVDRESLSDVAEMLAEAEKGMIVCGELHSDADKENIIALSKALQYPILADPLSNLRNGVHDKSTVIDAYDSFLKDDELKRKLRPDVVIRFGPMPVSKPVFLWLKDDPTIQQIVIDEDGGWRDPTQASAHMIHCNASVFAEEIMAGLTAATRSSEWLEKWQFVNGRFREHLQTISSEDVSFEGNLYRILQHLVPENSSLFVGNSMPIRDVDTFFEKQDRPFRIYSNRGANGIDGVVSSAMGVCEGTKAPVTLVIGDLSFYHDLNGLLAAKKLGIPLTVILVNNDGGGAFSFLPQASEKTHFEDLFGTPTGLDFKHAAALYGGTYSCPASWDEFKTAYAPQADKPGLHLIEIKTDRQSRVQLHRDMLNEAVREVKKQWEL
notes: full length (Thr2-Leu580 seen in crystal); N-terminal hexa-His tag with TEV site kept (24 extra residues); E. coli BL21(DE3); dimer peak used (tetramer in crystal); active site formed by two subunits
Broadly, the Km is the concentration of substrate that gives half-maximal velocity. As usually defined, the kcat is the number of substrate molecules converted per active site and unit of time at saturation. As a reminder, the kcat/Km is the second-order rate constant that governs catalysis at low substrate concentration. B1: the Michaelis-Menten constant (Km) in “purified protein [1]” was 346 ± 10 µM. Also, in “purified protein [2]”, the Michaelis constant (Km) turned out to be 27 ± 1 µM, the turnover number (kcat) was found to be 0.095 ± 0.00333 s⁻¹ and the kcat/Km came to 3500 ± 167 M⁻¹ s⁻¹.

B2: BsMenD (MenD, SEPHCHC synthase, EC 2.2.1.9) (Bacillus subtilis subsp. subtilis str. 168; R428A) (protein)
chain: B1 chain with R428A, A489I
notes: as for B1
Take B2: in “purified protein [1]”, the Km came to 514 ± 54 µM, the kcat was found to be 0.0567 ± 0.00333 s⁻¹ and the specificity constant (kcat/Km) amounted to 117 ± 16.7 M⁻¹ s⁻¹.

B3: BsMenD (MenD, SEPHCHC synthase, EC 2.2.1.9) (Bacillus subtilis subsp. subtilis str. 168; L493A) (protein)
chain: B1 chain with A489I, L493A
notes: as for B1
Take B3: in “purified protein [2]”, the Michaelis constant (Km) is 39 ± 1 µM, the kcat came to 0.317 ± 0.0167 s⁻¹ and the kcat/Km was 8170 ± 500 M⁻¹ s⁻¹.

B4: BsMenD (MenD, SEPHCHC synthase, EC 2.2.1.9) (Bacillus subtilis subsp. subtilis str. 168; F490A) (protein)
chain: B1 chain with A489I, F490A
notes: as for B1
Turning to B4, in the data set “purified protein [1]”, the Km was 274 ± 12 µM, the kcat is 0.0183 ± 0.00167 s⁻¹ and the kcat/Km amounted to 65 ± 3.33 M⁻¹ s⁻¹.

B5: BsMenD (MenD, SEPHCHC synthase, EC 2.2.1.9) (Bacillus subtilis subsp. subtilis str. 168; R106A) (protein)
chain: B1 chain with R106A, A489I
notes: as for B1
In the case of B5, in “purified protein [2]”, the Km was 41 ± 4 µM, the kcat was determined as 0.0117 ± 0.00333 s⁻¹ and the kcat/Km is 300 ± 167 M⁻¹ s⁻¹.

B6: BsMenD (MenD, SEPHCHC synthase, EC 2.2.1.9) (Bacillus subtilis subsp. subtilis str. 168) (protein)
chain: B1 chain with A489I
notes: as for B1
In the case of B6, in “purified protein [1]”, the Km is 22 ± 5 µM, the turnover number (kcat) was found to be 0.233 ± 0.0333 s⁻¹ and the kcat/Km was determined as 10700 ± 5000 M⁻¹ s⁻¹. Further, in the data set “purified protein [2]”, the Michaelis constant (Km) is 1.1 ± 0.2 µM, the turnover number (kcat) came to 0.317 ± 0.0167 s⁻¹ and the specificity constant (kcat/Km) was 317000 ± 50000 M⁻¹ s⁻¹.

B7: BsMenD (MenD, SEPHCHC synthase, EC 2.2.1.9) (Bacillus subtilis subsp. subtilis str. 168; R409A) (protein)
chain: B1 chain with R409A, A489I
notes: as for B1
Consider B7, for which the Km in the data set “purified protein [1]” was 159 ± 18 µM. For the same protein, in “purified protein [2]”, the Km is 8.5 ± 1.2 µM, the turnover number (kcat) was 0.0233 ± 0.00167 s⁻¹ and the kcat/Km was found to be 2670 ± 333 M⁻¹ s⁻¹.

B8: BsMenD (MenD, SEPHCHC synthase, EC 2.2.1.9) (Bacillus subtilis subsp. subtilis str. 168; R32A) (protein)
chain: B1 chain with R32A, A489I
notes: as for B1
As for B8, in the data set “purified protein [2]”, the Km amounted to 49 ± 7 µM, the kcat was found to be 0.183 ± 0.0167 s⁻¹ and the catalytic efficiency (kcat/Km) stood at 3670 ± 167 M⁻¹ s⁻¹.

B9: BsMenD (MenD, SEPHCHC synthase, EC 2.2.1.9) (Bacillus subtilis subsp. subtilis str. 168; K299A) (protein)
chain: B1 chain with K299A, A489I
notes: as for B1
With B9, in “purified protein [2]”, the Km was found to be 8.4 ± 1.2 µM, the turnover number (kcat) came out at 0.417 ± 0.0333 s⁻¹ and the kcat/Km worked out at 50000 ± 5000 M⁻¹ s⁻¹.
